Reference: the supplement of paper PMC9112550, “Optimization of the antimicrobial peptide Bac7 by deep mutational scanning” (BMC Biology, 2022)

Tested on: Escherichia coli TOP10
Test: shrunken log2 fold change of peptide-encoding DNA abundance (4.5 h post-induction vs induction); higher = less antimicrobial activity (less host growth inhibition)
Settings: time post-induction: 4.5 h; library: site-saturation at positions 5, 18, 19, 20
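Also: peptides expressed intracellularly from a pBAD plasmid library in pooled LB shake-flask culture, induced with 0.3% L-arabinose, DNA abundance read by NGS, three biological replicates, DESeq2 with apeglm shrinkage.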

Sequence: RRIRFRPPRLPRPRPRPATLPRP
- shrunken log2 fold change: -0.159

Sequence: RRIRWRPPRLPRPRPRPGASPRP
- shrunken log2 fold change: 0.793

Sequence: RRIRSRPPRLPRPRPRPMSTPRP
- shrunken log2 fold change: -0.13

Sequence: RRIRKRPPRLPRPRPRPGLLPRP
- shrunken log2 fold change: 0.494

Sequence: RRIRARPPRLPRPRPRPFDDPRP
- shrunken log2 fold change: -0.0122

Sequence: RRIRMRPPRLPRPRPRPNPVPRP
- shrunken log2 fold change: -0.0385

Sequence: RRIRRRPPRLPRPRPRPVRIPRP
- shrunken log2 fold change: -0.00526

Sequence: RRIRYRPPRLPRPRPRPSDAPRP
- shrunken log2 fold change: -0.386

Sequence: RRIRYRPPRLPRPRPRPPPYPRP
- shrunken log2 fold change: -0.0871

Sequence: RRIRKRPPRLPRPRPRPDNYPRP
- shrunken log2 fold change: -0.153

Sequence: RRIRARPPRLPRPRPRPMWDPRP
- shrunken log2 fold change: -0.103

Sequence: RRIRKRPPRLPRPRPRPGHEPRP
- shrunken log2 fold change: 0.127

Sequence: RRIRMRPPRLPRPRPRPHWKPRP
- shrunken log2 fold change: 0.0142

Sequence: RRIRIRPPRLPRPRPRPMPDPRP
- shrunken log2 fold change: 0.0702

Sequence: RRIRRRPPRLPRPRPRPWSFPRP
- shrunken log2 fold change: 0.0517

Sequence: RRIRWRPPRLPRPRPRPYTSPRP
- shrunken log2 fold change: -0.0806

Sequence: RRIRFRPPRLPRPRPRPQIQPRP
- shrunken log2 fold change: -0.42

Sequence: RRIRLRPPRLPRPRPRPTNWPRP
- shrunken log2 fold change: 0.0175

Sequence: RRIRRRPPRLPRPRPRPADHPRP
- shrunken log2 fold change: -0.115

Sequence: RRIRGRPPRLPRPRPRPGPMPRP
- shrunken log2 fold change: 0.966

Sequence: RRIRTRPPRLPRPRPRPNCAPRP
- shrunken log2 fold change: -0.254

Sequence: RRIRTRPPRLPRPRPRPRSPPRP
- shrunken log2 fold change: 0.0437

Sequence: RRIRVRPPRLPRPRPRPQLWPRP
- shrunken log2 fold change: 0.0627

Sequence: RRIRRRPPRLPRPRPRPNYIPRP
- shrunken log2 fold change: -0.237

Sequence: RRIRMRPPRLPRPRPRPRAYPRP
- shrunken log2 fold change: 0.426

Sequence: RRIRYRPPRLPRPRPRPQDIPRP
- shrunken log2 fold change: -0.252

Sequence: RRIRIRPPRLPRPRPRPIQKPRP
- shrunken log2 fold change: 0.00853

Sequence: RRIRLRPPRLPRPRPRPNIMPRP
- shrunken log2 fold change: -0.602

Sequence: RRIRPRPPRLPRPRPRPQAQPRP
- shrunken log2 fold change: 0.143

Sequence: RRIRGRPPRLPRPRPRPMSSPRP
- shrunken log2 fold change: -0.154

Sequence: RRIRDRPPRLPRPRPRPQTPPRP
- shrunken log2 fold change: 0.4

Sequence: RRIRLRPPRLPRPRPRPKIGPRP
- shrunken log2 fold change: -0.251

Sequence: RRIRNRPPRLPRPRPRPEPRPRP
- shrunken log2 fold change: 0.635

Sequence: RRIRMRPPRLPRPRPRPNQCPRP
- shrunken log2 fold change: -0.198

Sequence: RRIRKRPPRLPRPRPRPISGPRP
- shrunken log2 fold change: -7.33e-05

Sequence: RRIRFRPPRLPRPRPRPQRCPRP
- shrunken log2 fold change: 0.08

Sequence: RRIRARPPRLPRPRPRPPKCPRP
- shrunken log2 fold change: 0.274

Sequence: RRIRYRPPRLPRPRPRPYACPRP
- shrunken log2 fold change: 0.00253

Sequence: RRIRCRPPRLPRPRPRPSIFPRP
- shrunken log2 fold change: -0.575

Sequence: RRIRHRPPRLPRPRPRPPFTPRP
- shrunken log2 fold change: -0.176

Sequence: RRIRFRPPRLPRPRPRPIQHPRP
- shrunken log2 fold change: -0.196

Sequence: RRIRCRPPRLPRPRPRPREAPRP
- shrunken log2 fold change: 0.521

Sequence: RRIRVRPPRLPRPRPRPKPDPRP
- shrunken log2 fold change: 0.206

Sequence: RRIRHRPPRLPRPRPRPAWQPRP
- shrunken log2 fold change: 0.0329

Sequence: RRIRSRPPRLPRPRPRPVGIPRP
- shrunken log2 fold change: -0.012

Sequence: RRIRERPPRLPRPRPRPHSSPRP
- shrunken log2 fold change: -0.0464

Sequence: RRIRGRPPRLPRPRPRPGPKPRP
- shrunken log2 fold change: 0.808

Sequence: RRIRHRPPRLPRPRPRPLNTPRP
- shrunken log2 fold change: -0.351

Sequence: RRIRHRPPRLPRPRPRPIVTPRP
- shrunken log2 fold change: -0.388

Sequence: RRIRARPPRLPRPRPRPAWVPRP
- shrunken log2 fold change: 0.235

Sequence: RRIRCRPPRLPRPRPRPGGHPRP
- shrunken log2 fold change: 0.286

Sequence: RRIRYRPPRLPRPRPRPLHQPRP
- shrunken log2 fold change: -0.608

Sequence: RRIRDRPPRLPRPRPRPKTTPRP
- shrunken log2 fold change: 0.0604

Sequence: RRIRTRPPRLPRPRPRPSGIPRP
- shrunken log2 fold change: -0.0172

Sequence: RRIRNRPPRLPRPRPRPSGWPRP
- shrunken log2 fold change: -0.137

Sequence: RRIRYRPPRLPRPRPRPKDPPRP
- shrunken log2 fold change: -0.236

Sequence: RRIRTRPPRLPRPRPRPWNDPRP
- shrunken log2 fold change: -0.271

Sequence: RRIRNRPPRLPRPRPRPARNPRP
- shrunken log2 fold change: -0.0209

Sequence: RRIRKRPPRLPRPRPRPTWRPRP
- shrunken log2 fold change: 1.23

Sequence: RRIRARPPRLPRPRPRPTDIPRP
- shrunken log2 fold change: 0.224

Sequence: RRIRRRPPRLPRPRPRPVSHPRP
- shrunken log2 fold change: 0.218

Sequence: RRIRRRPPRLPRPRPRPDVAPRP
- shrunken log2 fold change: 0.592

Sequence: RRIRWRPPRLPRPRPRPHLSPRP
- shrunken log2 fold change: -0.154

Sequence: RRIRGRPPRLPRPRPRPDAGPRP
- shrunken log2 fold change: 0.601

Sequence: RRIRDRPPRLPRPRPRPFTKPRP
- shrunken log2 fold change: -0.262

Sequence: RRIRWRPPRLPRPRPRPRAKPRP
- shrunken log2 fold change: 0.788

Sequence: RRIRERPPRLPRPRPRPGIEPRP
- shrunken log2 fold change: 0.00615

Sequence: RRIRARPPRLPRPRPRPLCGPRP
- shrunken log2 fold change: 0.467

Sequence: RRIRMRPPRLPRPRPRPMASPRP
- shrunken log2 fold change: 0.00888

Sequence: RRIRSRPPRLPRPRPRPHCLPRP
- shrunken log2 fold change: -0.0826

Sequence: RRIRCRPPRLPRPRPRPTCSPRP
- shrunken log2 fold change: -0.157

Sequence: RRIRWRPPRLPRPRPRPFYEPRP
- shrunken log2 fold change: -0.579

Sequence: RRIRWRPPRLPRPRPRPWMPPRP
- shrunken log2 fold change: -0.127

Sequence: RRIRMRPPRLPRPRPRPLCWPRP
- shrunken log2 fold change: 1.15

Sequence: RRIRTRPPRLPRPRPRPTDPPRP
- shrunken log2 fold change: -0.198

Sequence: RRIRNRPPRLPRPRPRPNGDPRP
- shrunken log2 fold change: -0.0698

Sequence: RRIRDRPPRLPRPRPRPIHVPRP
- shrunken log2 fold change: -0.554

Sequence: RRIRTRPPRLPRPRPRPLRCPRP
- shrunken log2 fold change: 0.108

Sequence: RRIRSRPPRLPRPRPRPTIRPRP
- shrunken log2 fold change: 0.0218

Sequence: RRIRLRPPRLPRPRPRPLLYPRP
- shrunken log2 fold change: -0.326

Sequence: RRIRERPPRLPRPRPRPYVWPRP
- shrunken log2 fold change: -0.401

Sequence: RRIRYRPPRLPRPRPRPGCIPRP
- shrunken log2 fold change: -0.819

Sequence: RRIRGRPPRLPRPRPRPQPEPRP
- shrunken log2 fold change: 0.704

Sequence: RRIRIRPPRLPRPRPRPRRHPRP
- shrunken log2 fold change: -0.147

Sequence: RRIRERPPRLPRPRPRPNICPRP
- shrunken log2 fold change: -0.523

Sequence: RRIRNRPPRLPRPRPRPRLDPRP
- shrunken log2 fold change: 0.0403

Sequence: RRIRSRPPRLPRPRPRPWNWPRP
- shrunken log2 fold change: -0.328

Sequence: RRIRCRPPRLPRPRPRPHICPRP
- shrunken log2 fold change: -0.272

Sequence: RRIRTRPPRLPRPRPRPYKPPRP
- shrunken log2 fold change: -0.551

Sequence: RRIRQRPPRLPRPRPRPGFFPRP
- shrunken log2 fold change: 0.128

Sequence: RRIRMRPPRLPRPRPRPRAHPRP
- shrunken log2 fold change: 0.758
